Test results: the nanobody polyreactivity screen of Harvey et al. (2022)

Assay: yeast display, Sf9 membrane polyspecificity reagent, FACS + sequencing; frameworks hold sequencing errors
Summary of the method: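 In a synthetic yeast display library (Saccharomyces cerevisiae BJ5465), nanobody expression was induced with galactose for 36–48 hours. FACS gates were set low and high (top ~1%) using anti-HA fluorescence for expression and streptavidin fluorescence for binding of the Sf9 membrane reagent. Each polyreactivity label is drawn from the gate of origin.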

Sequence	polyreactivity (PSR sort gate)
QVQLVESGGGLVQEGRSLRLSCAASGRIFCFNVMGWYRQAPGKERELVATISGRTGSTYYADSVKGRFTISRDNAKNTVYLQMNSLKPEVTAVYYCNAVRTVNDYHYDYWGQVTQVTVSS	high polyreactivity
QVQLVESGGGLVQGGGSLRLSCAASGINFSVYPMGWYRQAPGKERELVAAISVGGGRTYYAYSVKGRFTISRDYAKNTFYLEMNSLKAEDTAVYYCDARLGTRQYKMDYWGQGTQVTVSS	high polyreactivity
QVQLVESGGGLVQGGGSLRLSCAASGLIFARNAMGWYRQAPGKERELVAAISKRGGSTFYADSVKGRFTISRDNAKKTVYLQMNSLKPEDTAVYYCHARSSETWHGDYWGQGTQLTVSS	high polyreactivity
QVQLVESGGGLVQGGGSLRLSCAASGRTFQRYAMGWYRQAPGKERELVAAISNRGGSTYYADSVKGRFTISRDNAKNTVYLQMNSLKPEDTAVYYCRTSTPRRVSGNYWGQGTQVTVSS	high polyreactivity
QVQLVESGGGLVQGGGSLRLSCAASGSTFSRYAMGWYRPAPGKERELVAAITGTGGRTYYADSVKGRFTISRANAKNTVYLQRNSLKPEDTAVYYCAAQRWTVKYNYWGQGTQVTVSS	high polyreactivity
QVQLVESGGGLVQGGGSLRLSCAASGSTIPSYAMGCYRQAPGKERELVASITYSDGTTRYADSVKGRFTISRDHAKNPVYLQMNSLIPEDTELYSCNAVYYREGMDYWGQGTQVTVSS	low polyreactivity
QVQLVESGGGLVQGGGSLRLSCDASGLTFPSNAMRWYRQATAKERELVASINRRGTSTFYADSVKGRFTISRDNAKNTFYLQMNSMKPEDTAVYYCNAYEGAAIRSTGRYDYWGHGTQVTVSS	low polyreactivity
QVQLVESGGGLVQGGGSLRLSFAGSGFTFGRYLMGWYSQAPGKERELVAAISRSGGSTHYADSVKGRFTISRDYAMNHFYLQMNSLKPEDTAVYYCAAASPRWPGQGDYWGQGTQVTVSS	high polyreactivity
QVQLVESGGGLVQPGGRLRISCAASGRIFGRYAMGWYRLEPGKERELVAAITSSGGNTYYADSVKGRFTISRDNAKNTVYLQMNSMKPEDTAVYYCIARSARSRRQSDYWGQGTHVTVSS	high polyreactivity
QVQLVESGGGLVQPGGRLRLSCAASGFTFHDYAMGWYRPAPGKERELVAAITKSGGRTYYADSVKGRFTISRDNAKNTVYLQMNSLKPEDTAVYFCAAASYRSQYDYYYWGQGTQVTVSS	high polyreactivity
QVQLVESGGGLVQPGGSLRLSCAASGIIFGYYAMGWYRQAPGKERVLDAAISWSGGSTYYADSVKGRVTISRDNAKNTVYFQMNSLKPEDTAVYYCAAVVRRKSGNDTWRYNYWGQGTQVTVSS	high polyreactivity
QVQLVESGGGLVQPGGSLRLSCAASGLTFDDNAKGWYRHAPGKERELVAAISKSGDGTYYADSVKGRFTISRDNAKNTVYLHMNSLKPEDTAVYYCNADAKYWRYVYWWFGDDYWGQGTQVTVSS	low polyreactivity
QVQLVESGGGLVQPGGSLRLSCAASGLTFPWYAMGWYRQAPGQERELVAAITNSDGNTFADSVKGRFTISRDNAKNSVYLQMNSLKAEDTAVYSCATDTRSLAYYYWGQGTQVTVSS	low polyreactivity
QVQLVESGGGLVQPGGSLRLSCAASGNTFANYAMGWYRQAPGKERELVAAITSNGGSTYYADSVKGRFTISRDNAKNTVFLQMNSLKPEDTAVYYCAADAAYYSGYDYWGQGTQVTVSS	low polyreactivity
QVQLVESGGGLVQPGGSLRLSCAASGRISSYYAMGWYRQAPGKERELVAAISNAGSTKYADSVKGRFTISRDNAKNTVYLQMNRLKPEDTAVYYCNARSYRWSWVLRYDYWGKGTQVTVSS	high polyreactivity
QVQLVESGGGLVQPGGSLRLSCAASGRTFYEYAMGWYRPAPGKERELVAGITSGGSTNYADSVKGRFTISRDNAKNTVYLQMNSLKPEDTAVYYCAASYWGYEYDYWGQGTQVTVSS	low polyreactivity

Sequence	polyreactivity (PSR sort gate)
QVQLVESGGGLVQPGGSLRLSCAASGRTIERNTMGWYRQAPGKERELFAAISYDGGSTYYADSVKGRFTISRDNAKNTVYLQMNSLKPEDTAVYYCNAGGSEIYRSPFDYWGQGTEVTVSS	low polyreactivity
QVQLVESGGGLVQPGGSLRLSCAASGRTYRWYAMGWYRQAPGKERELVASITSGVSTYYADSVTGRCTISRDNAKNTVNLQMNSLKPEDTAVYYCAAGYRFTTYLVYNYWGQGTHVTVSS	high polyreactivity
QVQLVESGGGLVQPGGSLRLSCAASGSIFRVYAMGWYRQAPGKERELVAAISRGGNTNYADSVKGRFTISRDNAKNTVYLQKNSLKPEDTAVYYCNARYYSWDWWIGYDYWGQGTLVTVSS	high polyreactivity
QVQLVESGGGLVQPGGSLRLSCAASGSIFRYYAMGWYRQAPGKERELVATIRSGGSTTYADSVKGRFTISRDNAKNTVYLQMNSLKPEDTAVYYCAATYGWRFTTFPSGYASDYYWGQGTQVTVSS	high polyreactivity
QVQLVESGGGLVQPGGSLRLSCAASGSTFGGYAKGWYRQAPGQERELVAAITWDTGTTYYADSVKGRFTISRDNAKNTVYLQMNSLKPEDTAVYYCAAVGSTTTGVRRRGYWGQGTQVNVSS	high polyreactivity
QVQLVESGGGLVQPGGSLRLSCAASGSTFSWNAMGWYRQAPGKERELVASITWGGGSTYYADSVKGRFTISRDTAKNTVYLQMNSLKPEDTAVYYSAAKYGTSKYSRYYYWGQGTQVTVSS	high polyreactivity
QVQLVESGGGLVQSGCSLRLSCAASGSTFYRYAMGWYRQAPGKERELVAAITSAGSTNYADSVKGRFTISRDNAKNTVYLLMNSLKPEDTAVYYCAADHGRPYFSYDYWGQGTQVTVSS	low polyreactivity
QVQLVESGGGLVQSGGILRLSCAASGGTFYANAMGWYRQAPGKERELVAAITSGGSTNYADSVKRRFTISRDNAKNTVSLQMNSLKPEDTAVYYCNASAQRRYWHSYFRRYDYWGQGTQVTVSS	low polyreactivity
QVQLVESGGGLVQSGGSLLLSCAASGFTFGRYAMAWYRQAPGKERELVAAIRRSGGSTYYADSVKGRFTISRDNAKNTVYLQMNSRKPEDTAVFYCAAVRWWTYGNYDYWGQGTQVTVSS	high polyreactivity
QVQLVESGGGLVQSGGSLRLICAASGRTSLNYAMGWYRQAPGKEMELVAAITRGGGGTYYADSVKGRFTISRDNAKNTVYFQMNSLKPEDTAVYYCAREHKRGGYGYWGQGTQVTVSS	high polyreactivity
QVQLVESGGGLVQSGGSLRLSCAASGFIFPVYTLGWYRHAPGKERELDAAITQIGGSTHYADSVKGRFTISRDNAKNTVYLQMNSLKPEDTAVFYCKAVPSYGTEYDYWGQGTQVTVSS	low polyreactivity
QVQLVESGGGLVQSGGSLRLSCAASGLIFTSYAMGWYRQAPGKERELVAAISYSGGTTFYADYVKGRFTISRDNAKNTVYLQMNSLKPEDTAVYYCAADSLSTTHDTLGYDRDDYWGQGTQVTVSS	low polyreactivity
QVQLVESGGGLVQSGGSLRLSCAASGLIIGLYAMGWYRQAPGTERELVAAISDNGARTYYADSVKGRFTISRDYAKYTVYLQMNSLKPEDTAVDYCARDQSYHYNYWGQGTQVTVSS	low polyreactivity
QVQLVESGGGLVQSGGSLRLSCAASGLTFRRNPMGRYRQAPGKERELVATITSGGSTNYADSVKGRFTISRDNAKNTVYLQMNSLKTEDTAVYYCAARTTYITPWAGRYFSWDYDYWGQGTQVTVSS	high polyreactivity
QVQLVESGGGLVQSGGSLRLSCAASGLTLGHNAMGLYRQAPGKERELVAAITRGGSTNYSDSVKGRFTISRDNAKNTVYFHMNSLKPEYTAVYSCAADLYLGWYYGFEYDYWGQGTQVTVSS	low polyreactivity
